Earlier results on one substance are cited in PMC4854875.

The target of this series is UBE2T (Homo sapiens) (UniProt Q9NPD8).
Sequence of UniProt Q9NPD8 (Q9NPD8 whole entry): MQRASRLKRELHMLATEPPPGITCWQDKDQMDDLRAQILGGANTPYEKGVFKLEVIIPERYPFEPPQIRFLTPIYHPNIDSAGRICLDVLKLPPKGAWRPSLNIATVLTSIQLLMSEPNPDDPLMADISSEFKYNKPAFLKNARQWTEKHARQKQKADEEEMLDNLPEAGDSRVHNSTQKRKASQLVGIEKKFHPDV

Consider FANCL (from UniProt Q9NW38), for which the Kd is 0.454 µM.
